Our source for the EC50 of peptide values is article PMC2191102.

This assay has as its target moth cytochrome c, MCC(99K), wild-type peptide peptide on I-Ek (mouse). As to the kind of experiment: C1/2wt: antigen concentration for half-maximal IL-2 with wild-type I-Ek CHO APC.

For 2B4, the EC50 of peptide was determined as 25 nM.
